Test results: publication PMC3154745

Target: Full length mammalian HP1β (human or mouse (sequences identical)) (UniProt P83916)
Assay: AUC

Chain of Full length mammalian HP1β, P83916 1-185 (natural protein; other documents disagree on this pair) (P83916 whole entry): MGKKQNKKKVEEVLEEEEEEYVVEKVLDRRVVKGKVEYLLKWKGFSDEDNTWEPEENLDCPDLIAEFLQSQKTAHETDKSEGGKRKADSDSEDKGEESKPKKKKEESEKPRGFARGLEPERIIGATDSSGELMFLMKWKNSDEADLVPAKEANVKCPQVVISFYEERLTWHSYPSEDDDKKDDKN

Kd: 0.5 µM
Substance: Full length mammalian HP1β, P83916 1-185 (natural protein; other documents disagree on this pair)
